From patent US20130289246A1 (VANDERBILT UNIVERSITY, published 2013)

Legend:
[1] = molecular target: T1, first-generation H3 LAH construct H3frThrST (Influenza A virus (H3)); test: ELISA, supernate
[2] = molecular target: T2, first-generation H1 LAH construct H1frThrST (Influenza A virus (H1)); test: ELISA, supernate
[3] = molecular target: T2, first-generation H1 LAH construct …; test: ELISA, supernate; remark: listed apart in the source
[4] = molecular target: T1, first-generation H3 LAH construct …; test: ELISA, supernate; remark: listed apart in the source
[5] = molecular target: T2, first-generation H1 LAH construct …; test: ELISA, supernate; remark: listed apart in the source
[6] = molecular target: T1, first-generation H3 LAH construct …; test: ELISA, supernate; remark: listed apart in the source
[7] = molecular target: T2, first-generation H1 LAH construct …; test: ELISA, supernate; remark: listed apart in the source
[8] = molecular target: T1, first-generation H3 LAH construct …; test: ELISA, supernate; remark: listed apart in the source
[9] = molecular target: T2, first-generation H1 LAH construct …; test: ELISA, supernate; remark: listed apart in the source
[10] = molecular target: T1, first-generation H3 LAH construct …; test: ELISA, supernate; remark: listed apart in the source
[11] = molecular target: T2, first-generation H1 LAH construct …; test: ELISA, supernate; remark: listed apart in the source
[12] = molecular target: T1, first-generation H3 LAH construct …; test: ELISA, supernate; remark: listed apart in the source
[13] = molecular target: T1, first-generation H3 LAH construct …; test: ELISA, recombinant mAb
[14] = molecular target: T2, first-generation H1 LAH construct …; test: ELISA, recombinant mAb

| Binder | OD [1] | OD [2] | OD [6] | OD [7] | also measured |
| --- | --- | --- | --- | --- | --- |
| mAb 7A13 (antibody, V domains shown) VH: QVQLQESAPGLVKPSGTLSLTCAVSGASLSSSDWWTWVRQPPGKGLEWIGEIHHGGSTNSNPSLQSRVTISIDKSKKQFSLKLTSVTVADTAVYYCARAPGADAGPYSENIHHWGQGTLVTVS VL: QLVLTQSPSASASLGASVKLTCTLSSRHSDYAIGWHQQQPGKGPRYLMKLNPDGSHTKGDGIPDRFSGSSSGAERYLTISNLLSEDEADYYCQTWGTGIQVFGGGTRLTVIS | 0.068 OD | 0.068 OD |  |  |  |
| mAb 11J19 (antibody, V domains shown) VH: EVQLQESGPGLVKPSETLSLSCTVSGGSITRSSYYWGWIRQPPGKGLEWIGNIYYSGTTYYNPSLKSRVTISVDTSKNQFSLKLSSVTAADTAVYYCARLYGSGLDYWGQGTLVTVS VL: DIQLTQSPSFLSASVGDRVTITCRASQGSSRYVAWYQQKPGKAPKLLILAASTLHTGVPSRFSGSGSGTEFTLTISSLQPEDFATYSCQQLNGFLLTFGGGTKVEIKR | 0.075 OD | 0.085 OD |  |  |  |
| mAb 10E15 (antibody, V domains shown) VH: EVQLLESGGGVVQPGRSLRLSCAASGFTFRTYGMHWVRQAPGKGLEWVAVISHDGNLKYYGGSVKGRFTISRDNSKNALYLQMNSLRVDDTALYYCARGIGITDAFDIRGQGTMVVVS VL: QSVLTQPPSVSAAPGQKVTISCSGSSSNIGKNYVSWYQQLPGTAPKLLIYDNDKRPSGIPDRFSGSKSGTSATLGITGLQTGDEADYHCGAWDSSLNGGVFGGGTKVTVLG |  |  |  |  | binding result [3]: no binding; OD [4]: 0.07 OD; OD [5]: 0.068 OD |
| mAb 5J8 (antibody, V domains shown) VH: EVQLVESGPGLVKPSDILSLTCAVSGYSISSNYYWGWIRQPPGKGLEWIGSIYHSGSTYYKPSLESRLGISVDTSKNQFSLKLSFVSAADTAVYYCARHVRSGYPDTAYYFDKWGQGTLVTVS VL: SYVLTQPPSVSVAPGETARISCGGNNIGTKVLHWYQQTPGQAPVLVVYDDSDRPSGIPERFSGSNSGNTATLTISRVEVGDEADYYCQVWDISTDQAVFGGGTKLTVLG |  |  | 0.083 OD | 0.076 OD |  |
| mAb 6J24 (antibody, V domains shown) VH: EVQLVESGGGLVQPGRSLRLSCVGSGFNFDGYAMQWVRQVPGKGLEWVSGISWHSDSTGYADSVRGRFTISRDNAKNSLYLQMDSLRPEDTAFYYCGKSIGHVGGSYRHPIDYWGQGTLVTVS VL: DIQLTQSPSSLSASVGDRVTITCRASQGITDYLAWYQQKPGTIPKLLIYAASTLQSGVPSRFSGGGYGTDFTLTISSLQPEDVATYYCQKYNSAPLTFGGGTKVEIKR |  |  |  |  | OD [8]: 0.94 OD; OD [9]: 0.418 OD |
| mAb 3E22 (antibody, V domains shown) VH: EVQLVESGAEVKKPGASVKVSCKASGYTFSRYYIHWVRQAPGQELEWMGWINPDSGDTNYAQKFRGRVTMARDTSISTVYMELNSLRYDDTAVYFCARIIWSSSGMDVWGQGTTVTVS VL: QSALTQPASVSGSPGQSITISCTGTSSDVGSYNLVSWYQQHPGKAPKLMIYEVSKRPSGVSNRFSGSKSGNTASLTISGLQAEDEADYYCHLYVGSSNWVFGGGTKLAVLG |  |  |  |  | OD [10]: 0.086 OD; OD [11]: 0.087 OD; binding result [12]: no binding; binding result [3]: no binding |
| mAb 4A10 (antibody, V domains shown) VH: EVQLVESGGGLVQPGGSLRLSCAASGFSFSSYWMTWVRQAPGKGLEWVANIKQYGSEKYYVDSVKGRFTISRDNAKNSLYLQMNSLRDDDTAVYYCARMGSYLDTYYYHYGMDVWGQGTTVTVS VL: QSVLTQPPSLSGAPGQRVTISCTGSSSNIGADYDVYWYQHLPGTAPKLLMYGDGYRPSGVPDRFSGSKSGTSASLAITGLQAEDEADYYCQSYDSSLSRRVVFGGGTKLTVLG |  |  | 0.073 OD | 0.069 OD |  |
| mAb 2O10 (antibody, V domains shown) VH: EVQLVESGGGLVQPGGSLRLSCAASGFTFNSYWMTWVRQAPGKGLEWVANINQDGSEKFFVDSVKGRFTISRDNAKTSLYLQMNSLRVEDTAVYYCAREGAPYDTYYYYYAMDVWGQGTTVTVS VL: QSVLTQPPSVSGAPGQRVTISCTGTSSNIGAGYGVHWYQQLPGAAPKLLVYGNSNRPSGVPDRFSGSKSGTSASLAITGLQAEDEADYYCQSYDISLSGSNVFGTGTKVTVLG |  |  | 0.074 OD | 0.072 OD |  |
| mAb 3N6 (recombinant) (antibody, V domains shown) VH: QVQLQESGPGLVKPSETLSLTCSVSGGSINYYYWSWIRQPPGKGLECIGYISDTGRTYYNPSLRSRVTISVDTSKNQFSLNLTSMTAADTAVYYCARDPTGSRQKNAFDMWGQGTMVTVS VL: AIQMTQSPSSLSASVGDRVTITCRASQNIRSYLNWYQQKPGKAPNLLIYGTTSLESGVPSRFSGSGSGTDFTLTISSLQPEDFATYYCQQSYHTPQTFGQGTKVEIKR |  |  |  |  | OD [13]: 0.072 OD; OD [14]: 0.91 OD |
| mAb 18G6 (antibody, V domains shown) VH: QVQLKESGPGLVKPSETLSLTCTVSGGSISSSNYNWGWIRQPPGKGLEWIGSVYYSGSTYFNPSLKSRVTISVDTSKNQFSLKLTSVTAADTAVYYCARLIAFYYDTNGYTWGQGTLVTVS VL: NSIMTQSPFTLSASVGDKVTITCRASQSISPWLAWYQQKPGKAPKLLIYKASSLETGVPSRFSGSESGTEFTLTISGLQPDDFATYYCQQYSSFARTFGQGTKVEIKR | 0.071 OD | 0.071 OD |  |  |  |
| mAb 25J3 (antibody, V domains shown) VH: QVQLQESGPGLVRPSETLSLTCNVSGDSINDYYWSWIRQPPGKGLEWIGYIYYSGSTNYNPSLNSRVTISVEMSKNQFSLILNSVTAADTAVYYCARVDYDSGGSFDPWGQGTLVTVS VL: QSVLTQPPSVSGAPGQRVTISCTGSSSNIGAGYDVHWYQQLPGTAPKLLIYGNSNRPSGVPDRFSGSKSGTSASLAITGLQAEDEADFYCQSYDSRLSGYVFGTGTKVTVLG | 0.067 OD | 0.068 OD |  |  |  |
| mAb 8F8 (antibody, V domains shown) VH: EVQLLESGGGVVQPGRSLRLSCAASGFMFSSYVMHWVRQPPGKGLEWVAVIWYDGSKTYFADSMRGRLTVSRDNSKNALYLQMNRLRAEDTAVYYCARQQDSGYSGPEVSYYSHYGMDVWGQGTTVIVS VL: QSVLTQSPSASGTPGRAITISCSGSSSNIGSNPVNWYQQLPGAAPKLLIYADEHRPSGVPDRFSGPKSGTSASLAISGLQSEDEADYYCAAWDDSLSGPAVVFGGGTKLTVLG | 0.071 OD | 0.071 OD |  |  |  |
| mAb 2K11 (antibody, V domains shown) VH: EVQLVESGGGLVQPGGSLRLSCVASTFSLINYWMTWVRQAPGKGLEWVANIKQDGFEKYYVDSVKGRFTISRDNAKNSLYLQMNSLRVEDTAVYYCARQGSYADTYFYHYGMDVWGQGTTVTVS VL: QSALTQPPSVSGAPGQRVTISCTGSSSNIGAGYDAYWYQQLPGTAPKLLIYGNSNRLSGVPDRFSASKSGTSASLAITGLQAEDEADYYCQSYDSSLSIFGGGTKLTVLR |  |  | 0.072 OD | 0.079 OD |  |
